Data set [1] concerns the molecule itself. The data set is described as follows: AUC + other: light scattering; MatP alone in solution, working buffer (50 mM Tris-HCl, 300 mM KCl, 5 mM MgCl2, pH 7.5); details in the supplement to Fig. S7.
The target in the next data set is T1, MatP (Escherichia coli, UniProt P0A8N0 1-150).
T1 sequence: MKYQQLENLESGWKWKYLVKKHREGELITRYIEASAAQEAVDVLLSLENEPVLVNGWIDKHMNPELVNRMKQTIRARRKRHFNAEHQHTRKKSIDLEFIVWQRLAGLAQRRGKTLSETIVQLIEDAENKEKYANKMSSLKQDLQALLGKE
Nature of the data set: fluorescence anisotropy; 300 mM KCl, 5 mM MgCl2; Kd in MatP dimer units; 1 dimer per DNA; 50 mM Tris-HCl, 300 mM KCl, 5 mM MgCl2, pH 7.5; temperature not stated; matS-Fl 10 nM in anisotropy titrations. The note with it: protein: recombinant; tags: untagged (N-terminal His6 removed by thrombin); chain copies: 2; label: 5'-fluorescein on sense strand. (Polarisation of emitted light reports the rotation of a fluorescent probe.)

B1: MatP (natural protein, Escherichia coli, UniProt P0A8N0 1-150, looked up)
chain: T1 sequence
notes: also called recombinant untagged MatP; not shown: His6, N-terminal, cleaved
What is called stoichiometry N is a count of units in the complex or per binding partner. In the case of B1, in data set [1], the “stoichiometry N” value turned out to be 2.

B2: matS-Fl (matS19) (dsDNA)
DNA 1: AAAGTGACACTGTCACCTT
DNA 2: AAGGTGACAGTGTCACTTT
Broadly, the Kd is the concentration at which binding is half-saturated. As for B2, the Kd with MatP was determined as 0.015 ± 0.002 µM.

For the origin of these results see PMC6538776, “The Bacterial DNA Binding Protein MatP Involved in Linking the Nucleoid Terminal Domain to the Divisome at Midcell Interacts with Lipid Membranes” (mBio, 2018).
